Experimental findings from patent US20250270339A1 are described below.

The target of assay [1] is huTfR Apical Domain-Avi-His (human). The assay can be described thus: SPR (Carterra LSA), 2+2 captured.
Assay [2] addresses Cyno TfR apical permuted N-term Avi-His (cynomolgus). The assay is described as follows: SPR (Carterra LSA), 2+2 captured.

Cyno TfR apical permuted N-term Avi-His (cynomolgus), sequence (chain, as listed by the source limits assumed): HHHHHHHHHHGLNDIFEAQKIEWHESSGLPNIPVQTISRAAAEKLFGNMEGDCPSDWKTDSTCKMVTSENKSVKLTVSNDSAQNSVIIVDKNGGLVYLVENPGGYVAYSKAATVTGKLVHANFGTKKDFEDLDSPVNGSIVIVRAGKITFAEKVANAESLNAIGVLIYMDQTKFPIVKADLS
huTfR Apical Domain-Avi-His (human), sequence (chain, as listed by the source limits assumed): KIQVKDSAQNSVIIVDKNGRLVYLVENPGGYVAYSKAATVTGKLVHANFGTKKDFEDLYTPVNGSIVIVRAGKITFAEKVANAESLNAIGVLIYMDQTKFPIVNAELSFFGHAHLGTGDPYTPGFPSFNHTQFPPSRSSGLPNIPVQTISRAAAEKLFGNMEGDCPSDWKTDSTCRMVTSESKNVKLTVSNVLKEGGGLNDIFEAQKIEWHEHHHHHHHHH

B1: TFR.15.WH8.1.42A.L1 2+2 anti-TfR bispecific antibody (bispecific antibody, part only; not given: isotype IgG backbone and linker, not shown: another chain or arm of the molecule; a dimerising Fc or GST; large carriers; small tags and cut ends)
scFv: QVQLVQSGAEVKKPGASVKVSCKASGYTFTSYYMHWVRQAPGQGLEWMGNIYPGSGSSNYAQKFQGRVTMTRDTSTSTVYMELSSLRSEDTAVYYCTRSSYYGNFDTMDNWGQGTTVTVSSSPNSASHSGSAPQTSSAPGSQEIVLTQSPATLSLSPGERATLSCRASSSIRAMNWYQQKPGQAPRRLIYDTSNRATGIPARFSGSGSGTDFTLTISSLEPEDFAVYYCHQRSSYPWTFGGGTKVEIK
Consider B1, for which the dissociation constant (Kd) (as a rule, the equilibrium constant for the complex coming apart) in assay [1] came out at 150 nM; in assay [2] it was 100 nM.

B2: TFR.15.WH8.1 2+2 anti-TfR bispecific antibody (bispecific antibody, part only; not given: isotype IgG backbone and linker, not shown: another chain or arm of the molecule; a dimerising Fc or GST; large carriers; small tags and cut ends)
scFv: QVQLVQSGAEVKKPGASVKVSCKASGYTFTSYYMHWVRQAPGQGLEWMGNIYPGSGSSNYAQKFQGRVTMTRDTSTSTVYMELSSLRSEDTAVYYCTRSSYYGNFDTMDNWGQGTTVTVSSGGSEGKSSGSGSESKSTGGSEIVLTQSPATLSLSPGERATLSCRASSSIRYMNWYQQKPGQAPRRLIYDTSNRATGIPARFSGSGSGTDFTLTISSLEPEDFAVYYCHQRSSYPWTFGGGTKVEIK
With B2, the Kd in assay [1] is 28 nM; in assay [2], 17 nM.

B3: TFR.15.WH8.1.24H 2+2 anti-TfR bispecific antibody (bispecific antibody, part only; not given: isotype IgG backbone and linker, not shown: another chain or arm of the molecule; a dimerising Fc or GST; large carriers; small tags and cut ends)
scFv: QVQLVQSGAEVKKPGASVKVSCKASGYTFTSYYMHWVRQAPGQGLEWMGNIYPGSGSSNYAQKFQGRVTMTRDTSTSTVYMELSSLRSEDTAVYYCTRSHYYGNFDTMDNWGQGTTVTVSSGGSEGKSSGSGSESKSTGGSEIVLTQSPATLSLSPGERATLSCRASSSIRYMNWYQQKPGQAPRRLIYDTSNRATGIPARFSGSGSGTDFTLTISSLEPEDFAVYYCHQRSSYPWTFGGGTKVEIK
Regarding B3, the Kd in assay [1] amounted to 5.6 nM; in assay [2] it was 2.6 nM.

B4: TFR.15.WH8.1.42Q 2+2 anti-TfR bispecific antibody (bispecific antibody, part only; not given: isotype IgG backbone and linker, not shown: another chain or arm of the molecule; a dimerising Fc or GST; large carriers; small tags and cut ends)
scFv: QVQLVQSGAEVKKPGASVKVSCKASGYTFTSYYMHWVRQAPGQGLEWMGNIYPGSGSSNYAQKFQGRVTMTRDTSTSTVYMELSSLRSEDTAVYYCTRSSYYGNFDTMDNWGQGTTVTVSSGGSEGKSSGSGSESKSTGGSEIVLTQSPATLSLSPGERATLSCRASSSIRQMNWYQQKPGQAPRRLIYDTSNRATGIPARFSGSGSGTDFTLTISSLEPEDFAVYYCHQRSSYPWTFGGGTKVEIK
B4: the Kd in assay [1] worked out at 62 nM; in assay [2] it was 40 nM.

B5: TFR.15.WH8.1.26H 2+2 anti-TfR bispecific antibody (bispecific antibody, part only; not given: isotype IgG backbone and linker, not shown: another chain or arm of the molecule; a dimerising Fc or GST; large carriers; small tags and cut ends)
scFv: QVQLVQSGAEVKKPGASVKVSCKASGYTFTSYYMHWVRQAPGQGLEWMGNIYPGSGSSNYAQKFQGRVTMTRDTSTSTVYMELSSLRSEDTAVYYCTRSSYHGNFDTMDNWGQGTTVTVSSGGSEGKSSGSGSESKSTGGSEIVLTQSPATLSLSPGERATLSCRASSSIRYMNWYQQKPGQAPRRLIYDTSNRATGIPARFSGSGSGTDFTLTISSLEPEDFAVYYCHQRSSYPWTFGGGTKVEIK
With B5, the Kd stood at 280 nM in assay [1] and 2200 nM in assay [2].

B6: TFR.15.WH8.1.42A 2+2 anti-TfR bispecific antibody (bispecific antibody, part only; not given: isotype IgG backbone and linker, not shown: another chain or arm of the molecule; a dimerising Fc or GST; large carriers; small tags and cut ends)
scFv: QVQLVQSGAEVKKPGASVKVSCKASGYTFTSYYMHWVRQAPGQGLEWMGNIYPGSGSSNYAQKFQGRVTMTRDTSTSTVYMELSSLRSEDTAVYYCTRSSYYGNFDTMDNWGQGTTVTVSSGGSEGKSSGSGSESKSTGGSEIVLTQSPATLSLSPGERATLSCRASSSIRAMNWYQQKPGQAPRRLIYDTSNRATGIPARFSGSGSGTDFTLTISSLEPEDFAVYYCHQRSSYPWTFGGGTKVEIK
Take B6: the Kd stood at 160 nM in assay [1] and 88 nM in assay [2].

B7: TFR.15.WH8.1.24N 2+2 anti-TfR bispecific antibody (bispecific antibody, part only; not given: isotype IgG backbone and linker, not shown: another chain or arm of the molecule; a dimerising Fc or GST; large carriers; small tags and cut ends)
scFv: QVQLVQSGAEVKKPGASVKVSCKASGYTFTSYYMHWVRQAPGQGLEWMGNIYPGSGSSNYAQKFQGRVTMTRDTSTSTVYMELSSLRSEDTAVYYCTRSNYYGNFDTMDNWGQGTTVTVSSGGSEGKSSGSGSESKSTGGSEIVLTQSPATLSLSPGERATLSCRASSSIRYMNWYQQKPGQAPRRLIYDTSNRATGIPARFSGSGSGTDFTLTISSLEPEDFAVYYCHQRSSYPWTFGGGTKVEIK
In the case of B7, the values for the Kd in assay [1] and in assay [2] were 140 nM and 47 nM, respectively.

B8: TFR.15.WH8.1.42S 2+2 anti-TfR bispecific antibody (bispecific antibody, part only; not given: isotype IgG backbone and linker, not shown: another chain or arm of the molecule; a dimerising Fc or GST; large carriers; small tags and cut ends)
scFv: QVQLVQSGAEVKKPGASVKVSCKASGYTFTSYYMHWVRQAPGQGLEWMGNIYPGSGSSNYAQKFQGRVTMTRDTSTSTVYMELSSLRSEDTAVYYCTRSSYYGNFDTMDNWGQGTTVTVSSGGSEGKSSGSGSESKSTGGSEIVLTQSPATLSLSPGERATLSCRASSSIRSMNWYQQKPGQAPRRLIYDTSNRATGIPARFSGSGSGTDFTLTISSLEPEDFAVYYCHQRSSYPWTFGGGTKVEIK
Consider B8, for which the Kd in assay [1] stood at 510 nM; in assay [2], 690 nM.

B9: TFR.15.WH8.1.42A.3x(G4S) 2+2 anti-TfR bispecific antibody (bispecific antibody, part only; not given: isotype IgG backbone and linker, not shown: another chain or arm of the molecule; a dimerising Fc or GST; large carriers; small tags and cut ends)
scFv: QVQLVQSGAEVKKPGASVKVSCKASGYTFTSYYMHWVRQAPGQGLEWMGNIYPGSGSSNYAQKFQGRVTMTRDTSTSTVYMELSSLRSEDTAVYYCTRSSYYGNFDTMDNWGQGTTVTVSSGGGGSGGGGSGGGGSEIVLTQSPATLSLSPGERATLSCRASSSIRAMNWYQQKPGQAPRRLIYDTSNRATGIPARFSGSGSGTDFTLTISSLEPEDFAVYYCHQRSSYPWTFGGGTKVEIK
Molecule B9 registered a Kd in assay [2] of 74 nM.

B10: TFR.15.WH8.1.42A.LH 2+2 anti-TfR bispecific antibody (bispecific antibody, part only; not given: isotype IgG backbone and linker, not shown: another chain or arm of the molecule; a dimerising Fc or GST; large carriers; small tags and cut ends)
scFv: EIVLTQSPATLSLSPGERATLSCRASSSIRAMNWYQQKPGQAPRRLIYDTSNRATGIPARFSGSGSGTDFTLTISSLEPEDFAVYYCHQRSSYPWTFGGGTKVEIKGGSEGKSSGSGSESKSTGGSQVQLVQSGAEVKKPGASVKVSCKASGYTFTSYYMHWVRQAPGQGLEWMGNIYPGSGSSNYAQKFQGRVTMTRDTSTSTVYMELSSLRSEDTAVYYCTRSSYYGNFDTMDNWGQGTTVTVSS
B10: the Kd in assay [1] stood at 190 nM; in assay [2], 60 nM.
